Assay results from the nanobody polyreactivity screen of Harvey et al. (2022).

Experiment: yeast display, Sf9 membrane polyspecificity reagent, FACS + sequencing; frameworks hold sequencing errors
Method in brief: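 Galactose-induced (36–48 hours) yeast carrying a synthetic nanobody display library were exposed to 10% biotinylated, detergent-solubilized Sf9 membrane reagent at 4 °C for 1 hour. FACS followed streptavidin microbead enrichment, using low and high (top ~1%) gates for expression (anti-HA) and reagent binding (streptavidin). Colony PCR, MiSeq 2 × 250 sequencing and CDR-length filtering followed. Labels for polyreactivity reflect the gate of origin.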

**Q.** For “QVQLVESGGGLVQAGGSLRLSCAASGNIFKYYAMGWYRQAPGKERELVAAISWGGSRTYYADSVKGRFTISRDNAKNTVSLQMNSLKPEDTAVYYCAARVYGVDGFGYWGLGTQVTVSS”, which “polyreactivity (PSR sort gate)” value is on record?
**A.** The value was “high polyreactivity”.

**Q.** With “QVQLVESGGGLVQAGGSLRLSCAASGNIFLFYVMAWYRQAPGKERELVAAITLSGTNTYYADSVKGRFTISRDNAKNTVYLQMNSLKPDDTAVYYCAAEPKTYDWYPWGQVIENYWGQGTQVTVSS” as the sequence, how does the “polyreactivity (PSR sort gate)” value read?
**A.** The value was “low polyreactivity”.

**Q.** Which “polyreactivity (PSR sort gate)” value does the source give for “QVQLVESGGGLVQAGGSLRLSCAASGNIFLYYAMGWYIPAPGKEREFVSDIDSSGASTYYADSVKGRFTISRDNAKNTVYLQMNSLKPEDTAVYYCAAEFHWWYAGYDYGYWGQGTQVTVSS” here?
**A.** Its value is “low polyreactivity”.

**Q.** For “QVQLVESGGGLVQAGGSLRLSCAASGNIFLYYAMGWYRQAPGKERELVADIDASGASTYYADSVKGRFTIARDNAKKTVYLQLNSLTPEDTAVYYCAAEFHWWYAGYDYGYWGQGTQVTVSS”, which “polyreactivity (PSR sort gate)” value is on record?
**A.** The value was “low polyreactivity”.

**Q.** Which “polyreactivity (PSR sort gate)” value does the source give for “QVQLVESGGGLVQAGGSLRLSCAASGNIFNEYAMGWYRQAPGKERELVAAITWSAGSTYYADSVKGRFTISRDNAKNTVYLQMNSLKPEDTAVYYCNAEYTWHRGYDYWGQGTQVTVSS” here?
**A.** The value was “low polyreactivity”.

**Q.** With “QVQLVESGGGLVQAGGSLRLSCAASGNIFPAYAMGWYRPAPGKERELVATISRRGGGTYYADSVKGRFTISRDNAKNTVYLQMNSLKPEDTAVYYCNGAGWTSAYDYWGQGTQVTVSS” as the sequence, how does the “polyreactivity (PSR sort gate)” value read?
**A.** The value was “low polyreactivity”.

**Q.** With “QVQLVESGGGLVQAGGSLRLSCAASGNIFPGYAMGWYRQAPGKERELVAGISGSGGRTYYADSVKGRFTISRDNAKITVYLQMNSLKPEDSAVYYCAAEFKYYYRFEYDYWGQGTQVTVSS” as the sequence, how does the “polyreactivity (PSR sort gate)” value read?
**A.** The value was “low polyreactivity”.

**Q.** With “QVQLVESGGGLVQAGGSLRLSCAASGNIFPRYAMGWYRQATGKERELVAAITWRTSSTYYADSVKGRFTISRDNAKNTVYLQMNSLKPEDTAVYYCAKTSSRIAGEYWGQGTQVTVSS” as the sequence, how does the “polyreactivity (PSR sort gate)” value read?
**A.** The value was “low polyreactivity”.

**Q.** Which “polyreactivity (PSR sort gate)” value does the source give for “QVQLVESGGGLVQAGGSLRLSCAASGNIFQKYAMGWYRQAPGKERELVAAIRRGDRTYADSVKGRFTISRDNAKNTVYLQMISLKPEDTAVYYCAAPQVWWGYYTRGVDYWGQGTQVTVSS” here?
**A.** Its value is “low polyreactivity”.

**Q.** Which “polyreactivity (PSR sort gate)” value does the source give for “QVQLVESGGGLVQAGGSLRLSCAASGNIFRPYTMGWNRQEPGKERELVARISSGGSTNYADSVKGRFTISRDNAKNTVYFQMNSLKPEDTAVYYCAKRYGTVHSRYGYWGQGTQVTVSS” here?
**A.** Its value is “high polyreactivity”.

**Q.** For “QVQLVESGGGLVQAGGSLRLSCAASGNIFRPYTMGWYRQAPGKERELVARISSGGSTNYADSVKGRFTISRDNAKNTVNLQMNSLKPEDTAVYYCAKRYGTVHSRYGYWGQGTQVTVSS”, which “polyreactivity (PSR sort gate)” value is on record?
**A.** Its value is “high polyreactivity”.

**Q.** Which “polyreactivity (PSR sort gate)” value does the source give for “QVQLVESGGGLVQAGGSLRLSCAASGNIFRTYAMGWYRQAPGKERELVAAISRGGRTYYADSVKGRFTISRDNAKNSVYLQMNSLKPVDTAVYYCNVQPDRISRYDYWGQGTQVTVSS” here?
**A.** Its value is “high polyreactivity”.

**Q.** For “QVQLVESGGGLVQAGGSLRLSCAASGNIFRYYAMGWYRQSPGKERELVAAITRSGGSTYADSVKGRFTISRDNAKNTVYLQMNSLKPEDTAVYYCAAVGYRYFTIYDYWGQGTQVTVSS”, which “polyreactivity (PSR sort gate)” value is on record?
**A.** The value was “low polyreactivity”.

**Q.** Which “polyreactivity (PSR sort gate)” value does the source give for “QVQLVESGGGLVQAGGSLRLSCAASGNIFSDNAMGWYRQAPGKERELVAAITASTSDTYYADSVKGRFTISRDNAKNSVYLQMNSLKPEDTAVYYCAADSRGFQLFDYWGQGTQVTVSS” here?
**A.** The value was “low polyreactivity”.

**Q.** For “QVQLVESGGGLVQAGGSLRLSCAASGNIFSFYAMGWNRPAPGKERELVAAINWSGGDTYYADSVKGRFTISRDNAKNTVYLQMNSLKPEDTAVYYCAAEYYYQYYPGGYDYWGQGTQVTVSS”, which “polyreactivity (PSR sort gate)” value is on record?
**A.** Its value is “high polyreactivity”.

**Q.** For “QVQLVESGGGLVQAGGSLRLSCAASGNIFSSNAMGWYRHAPGKEREVVAAITRSGGSTYYADSVKGRFTISRDNAKNTVYLQMNSLKPEDTAVYYCAAGKPRSKYWYDYWGQGTQVTVSS”, which “polyreactivity (PSR sort gate)” value is on record?
**A.** The value was “high polyreactivity”.

**Q.** Which “polyreactivity (PSR sort gate)” value does the source give for “QVQLVESGGGLVQAGGSLRLSCAASGNIFSSNAMGWYRQAPGKERELVAAISASGGNTYYADSVKGRFTISRDNAKNTVYLQINSLKPEDTAVYYCNAYRGGYLRRGYYYWGQGSQVTVSS” here?
**A.** The value was “high polyreactivity”.

**Q.** Which “polyreactivity (PSR sort gate)” value does the source give for “QVQLVESGGGLVQAGGSLRLSCAASGNIFSTYAMGWYRQAPGKERELVAAISKSGGRTYYADSVKGRFTISRDNAKNTVYLQMNSLKPEDTAVYYCNKRYQHGISFGYGYWGQGTQVTVSS” here?
**A.** Its value is “high polyreactivity”.

**Q.** Which “polyreactivity (PSR sort gate)” value does the source give for “QVQLVESGGGLVQAGGSLRLSCAASGNIFSWNTMGWYRQAPGKERELVAAITYRGTRTFYADSVKRRFTISRDNAKNTVYLQMNSLKPEDTEVYYCAATRYAPYRRYYYWGQGTQVTVSS” here?
**A.** Its value is “high polyreactivity”.

**Q.** Which “polyreactivity (PSR sort gate)” value does the source give for “QVQLVESGGGLVQAGGSLRLSCAASGNIFTFNAMGWYRQAPGKERELVAAIRSGGSTNYADSVKGRFTISRDNAKNTVYLQMNSLKPEDTAVYYCAAKRYVQGYVYRYGYWGQGTQVTVSS” here?
**A.** Its value is “high polyreactivity”.

**Q.** For “QVQLVESGGGLVQAGGSLRLSCAASGNIFTSYAMGWYRQAPGKERELVAAISSGGRTSYADSVKGRFTISRDNAKNTVYLEMNSLKPEDNAVYYCAAYYRRWQREYYYWGQGTKVTVSS”, which “polyreactivity (PSR sort gate)” value is on record?
**A.** The value was “high polyreactivity”.

**Q.** Which “polyreactivity (PSR sort gate)” value does the source give for “QVQLVESGGGLVQAGGSLRLSCAASGNIFTYYVRGWYRQEPGKERELVAAISRRGGSTYYADSVKGRFTISRDFAKNTVYLQMNSLKPEDTAVYYCAKKYPRDMDYWGQGTQVTVSS” here?
**A.** Its value is “high polyreactivity”.

**Q.** With “QVQLVESGGGLVQAGGSLRLSCAASGNIFVFYVMGWYRPAPGKERELVASISSTGNTYYADSVKGRFTISRDNAKNTVYLQMNSLKPEDTAVYYCNADPIFVYSSYNYWGQGTQVTVSS” as the sequence, how does the “polyreactivity (PSR sort gate)” value read?
**A.** The value was “low polyreactivity”.

**Q.** For “QVQLVESGGGLVQAGGSLRLSCAASGNIFVNYAMGWYRQAPGKERELVASINYNGGNTYYADSVKGRFTISRDNAKNTVYLQMNSLKPEDTAVYYCAKDGGGLLRWYTDEYDYWGQGTQVNVSS”, which “polyreactivity (PSR sort gate)” value is on record?
**A.** The value was “low polyreactivity”.

**Q.** Which “polyreactivity (PSR sort gate)” value does the source give for “QVQLVESGGGLVQAGGSLRLSCAASGNIFVSYDLGWYRQAPGKERELVAAISWRGGSTYYADSVKGRFTNSRDNAKNTVFLKMNSLKPEDTAVYYCSVDDWLDWLFADFGYWGQGTQVTVSS” here?
**A.** The value was “low polyreactivity”.

**Q.** Which “polyreactivity (PSR sort gate)” value does the source give for “QVQLVESGGGLVQAGGSLRLSCAASGNIFVYNAMGWYRQAPGKERELVAAISWTGGSTYYADSVKGRFTISRDNAKNTVYLQMNSLKPEDTAVYYCAKSFGIWHARWLTYDYWGQGTQVTVSS” here?
**A.** The value was “low polyreactivity”.

**Q.** For “QVQLVESGGGLVQAGGSLRLSCAASGNIFYINAMGWYRQAPGKERELVAAISSGGRTNYADSVKGRFTISRDNAKNTVYLQMNSLKPEDTAVYYCGAEGPEIKYYYWGQGTQVTVSL”, which “polyreactivity (PSR sort gate)” value is on record?
**A.** The value was “low polyreactivity”.

**Q.** For “QVQLVESGGGLVQAGGSLRLSCAASGNIFYINTMGWYRQAPGKERELVAAIDASDGSTYYADSVKGRFTISRDNAKNSVYLQMYSLKPEDTAVYYCASRRGYDSVYYFYTLWYYYWGQGTQVTVSS”, which “polyreactivity (PSR sort gate)” value is on record?
**A.** Its value is “low polyreactivity”.

**Q.** Which “polyreactivity (PSR sort gate)” value does the source give for “QVQLVESGGGLVQAGGSLRLSCAASGNIFYQYAMGWYRQAPGKDREFVAAISISGTSTYADSVKGRFTISRDNAKNTVYLQMNSLKPEDTAVYWGQGTQVTVSS” here?
**A.** The value was “low polyreactivity”.

**Q.** With “QVQLVESGGGLVQAGGSLRLSCAASGNIFYRYAMGWYRQAPGKERELVAAISGNSGNTYYADSVKGRFTISRDIAKNTVYLQMNSLKPEDTAVYYCAAERRAFGHYSWGQGTQVTVSS” as the sequence, how does the “polyreactivity (PSR sort gate)” value read?
**A.** The value was “high polyreactivity”.

**Q.** For “QVQLVESGGGLVQAGGSLRLSCAASGNIFYVYAMGWYRQAPGKERELVATITWRGGNTYYADSVKGRFTISRDNAKNTVDLQMNSLTPEDTAVYYCAAYVGYTRAYIGQFYAYDYWGQGTQVTVSS”, which “polyreactivity (PSR sort gate)” value is on record?
**A.** The value was “low polyreactivity”.

**Q.** With “QVQLVESGGGLVQAGGSLRLSCAASGNILASNGMGLYRQAPGKERELVAAITYSGGSTYYADSVKGRFTISRDNAKNTVYLQMNSLKPEDTAVYDCAARYYYGRRYDYWGQGTQVTVSS” as the sequence, how does the “polyreactivity (PSR sort gate)” value read?
**A.** Its value is “low polyreactivity”.
